Laboratory results reported in patent US9850293B2, “Targeting trastuzumab-resistant HER2+ breast cancer with a HER3-targeting nanoparticle” (priority 2014, dated 2017).
Entries after “also recorded” stand apart in the source; their conditions may differ.

Assays:
[1] = tested on: BT474 trastuzumab-resistant cells; experiment: Tumor cell killing in culture
Procedure: (§1) FIG. 21 depicts graph that show the results of the administration of HerDox on various cells. […] N=3. *=p<0.05 compared to parental. […] N=3.
(§2) N=3. *, p<0.05 compared to parental. […] N=3. […] Parental and resistant cell lines were treated with HerDox−/+HER3 blocking peptide (ErbB3 human; Prospec), and tested for cell survival 48 hours later. […] Treatments were compared to mock (saline)-treatment. […] N=3. *, p<0.05 compared to parental. […] N=3.
(§3) Parental cell lines were pre-treated with 0.5 mg/mL Tz for 24 hours before testing these cells for surface HER3 levels. […] Parental cell lines were pre-treated with 0.5 mg/mL Tz for 24 hours before testing these cells for HerPBK10 binding. […] SKBR3 Parental cells were treated with Tz at indicated concentrations (see upper X-axes) 4 and 24 hours before HerDox treatment and assayed for survival at 48-72 h after treatment. N=3. […] SK-474 Parental cells were treated with Tz at indicated concentrations (see upper X-axes) 4 and 24 hours before HerDox treatment and assayed for survival at 48-72 h after treatment. N=3. […] MDA-MB-435 non-resistant cells were treated with Tz at indicated concentrations (see upper X-axes) 4 and 24 hours before HerDox treatment and assayed for survival at 48-72 h after treatment. […] N=3. […] Tz-resistant cells were treated with Tz at indicated concentrations (see upper X-axes) 4 and 24 hours before HerDox treatment and assayed for survival at 48-72 h after treatment. N=3.
(§4) N=3. *, p<0.05 compared to parental. […] N=3. […] N=3. […] Tumor volumes were measured by calipers. […] Tumor volumes were measured by calipers. […]

BT474 parental cells = experiment: Tumor cell killing in culture; assay type: cell-based, human
Procedure: as §1, §2, §3, §4

MDA-MB-435 = experiment: Cytotoxicity on cell lines (HerDox dose curves); assay type: cell-based, human; conditions: concentration yielding 50% reduction in cell survival, mean ± SD
Procedure: FIG. 17 (B) depicts toxicity to cells displaying differential HER2. Cytotoxicities from a range of HerDox doses were assessed on each cell line by metabolic assay and confirmed by crystal violet stain. LD50 values shown in log scale were determined by non-linear regression analyses of HerDox dose curves using a scientific graphing program and confirmed using a calculator. The relative HER2 level of each cell line is shown next to each LD50 value.
The inventors measured cell surface levels of HER subunits on various cell lines and types described herein, as previously described levels may not reflect the actual levels in the available cells used. The inventors acquired the indicated cell lines from ATCC and the NIH/NCI and profiled these with respect to HER subunit levels (FIG. 17 (A)). To assess whether HerDox induces toxicity in accordance to HER2 levels, the inventors selected lines displaying HER2 at relatively high (SKBR3), moderate (MDA-MB-435, MDA-MB-453, HeLa), and low to undetectable (MDA-MB-231) levels, and performed cytotoxicity dose curves.

[2] = HerDox stability under storage conditions; assay type: physicochemical; conditions: up to 12 days
Procedure: FIG. 6 (A) illustrates conjugate stability under different storage conditions, or in serum. HerDox was incubated up to 12 days at 4° C., Room Temperature, or 37° C. Samples were filtered through ultrafiltration spin columns every other day.
The inventors tested the stability of HerDox over 12 days under different storage temperatures: 40° C., room temperature, or 37° C. […] The inventors also examined HerDox stability in serum-containing media at 37° C. […] Dox retention in the conjugate was also assessed by eluting the conjugate from the beads at each time point.

[3] = tested on: HER2+ tumors (MDA-MB-435); experiment: In vivo tumor toxicity (tumor growth); parameters: species or system mouse; conditions: 0.004 mg/kg with respect to Dox, daily tail vein injections for 7 days
[4] = Off-target toxicity in treated mice (weight, heart, liver)
Procedure: Relative cell survival (as % of untreated cells) on day 3 of treatment. (+Her), pre-incubation of MDA-MB-435 cells with receptor-blocking ligand (recombinant heregulin) before receiving HerDox. N=3. […] Tissues were harvested from independently injected mice euthanized at indicated time points after injection and fluorescence intensity/tissue acquired using a multimode imager. […] Bar, about 4 μm. […] Day 0=3 days before tail vein injections (mice received daily injections for 7 days). […] Day 0=3 days before tail vein injections (mice received daily injections for 7 days). […] Micrographs (20× magnification) in (E) also show representative H&E stained specimens of myocardia and immunofluorescent specimens of livers from treated mice. Green fluorescence in nuclei indicates apoptosis (positive TUNEL stain).

B1: HerDox: non-covalent complex of HerPBK10, double-stranded oligonucleotide and intercalated Dox (Unit A+Unit B+Unit C) (conjugate)
chain: SHLVKCAEKEKTFCVNGGECFMVKDLSNPSRYLCKCQPGFTGARCTENVPMKVQNQEKAEELYQKMRRAAMYEEGPPPSYESVVSAAPVAAALGSPFDAPLDPPFVPPRYLRPTGGRNSIRYSELAPLFDTTRVYLVDNKSTDVASLNYQNDHSNFLTTVIQNNDYSPGEASTQTINLDDRSHWGGDLKTILHTNMPNVNEFMFTNKFKARVMVSRLPTKDNQVELKYEWVEFTLPEGNYSETMTIDLMNNAIVEHYLKVGRQNGVLESDIGVKFDTRNFRLGFDPVTGLVMPGVYTNEAFHPDIILLPGCGVDFTHSRLSNLLGIRKRQPFQEGFRITYDDLEGGNIPALLDVDAYQASLKDDTEQGGGGAGGSNSSGSGAEENSNAAAAAMQPVEDMNDHAIRGDTFATRAEEKRAEAEAAAEAAAPAAQPEVEKPQKKPVIKPLTEDSKKRSYNLISNDSTFTQYRSWYLAYNYGDPQTGIRSWTLLCTPDVTCGSEQVYWSLPDMMQDPVTFRSTRQISNFPVVGAELLPVHSKSFYNDQAVYSQLIRQFTSLTHVFNRFPENQILARPPAPTITTVSENVPALTDHGTLPLRNSIGGVQRVTITDARRRTCPYVYKALGIVSPRVLSSRTFKKKKKKKKKK
modifications: left off: small tags and cut ends
effect on BT474 resistant cells ([1]; 48-72 h after treatment): completely killed off; also recorded: complete cell death at all HerDox concentrations tested; also recorded: effectively eliminated | cytotoxicity at five-fold lower HerDox concentrations with trastuzumab pre-treatment ([1]; Tz-resistant BT474): further enhanced cytotoxicity | effect on cell survival at five-fold lower HerDox concentrations ([1]; Tz-resistant BT474): still had a potent effect on cell survival | cell death on parental BT474 (comparative) (BT474 parental cells; 48-72 h after treatment): higher cell death compared to Tz and Tz+Pz; also recorded: modestly improved over trastuzumab; also recorded: modestly improved over Tz | enhancement of HerDox toxicity by trastuzumab pre-treatment (BT474 parental cells; parental BT474, 4 h pre-treatment): 50% | enhancement of HerDox toxicity by trastuzumab pre-treatment (BT474 parental cells; parental BT474, 24 h pre-treatment): ~75% | EC50 (MDA-MB-435): 0.74 ± 0.07 µM | product remaining intact ([2]; 4° C.): 100% | effect of storage on drug incorporation ([2]; room temperature and 37° C.): appeared to enhance the incorporation of the drug | effect on tumor growth [3]: essentially prevented tumor growth | cardiac function (echocardiograms) ([4]; 25 days following injections): no effect on these measurements | liver and heart toxicity ([4]; systemic delivery in vivo): avoiding liver and heart toxicity
